Experimental data taken from publication PMC5960627 (Biochemical pharmacology, 2018).

Target: Calmodulin (UniProt P0DP23 1-149)
Test: other fluorescence titration

Binder | Kd [µM]
DRYLAIVHPMKSRLRRT (domain or fragment) [BSAT1R_(125-141), FRET biosensor with AT1R a.a. 125-141 (SMD2) between EYFPc and ECFP] | 13.9
YTLIWKALKKAYEIQKNK (domain or fragment) [BSAT1R_(215-232), FRET biosensor with AT1R a.a. 215-232 (part of SMD3) between EYFPc and ECFP] | 1.05
AKRYALQLLKAIPPKAQSH (domain or fragment) [BSAT1R_(309-327mut), FRET biosensor with mutant AT1R a.a. 309-327 (SMD4JM) between EYFPc and ECFP] | 6.6
DQALAIVHPMKSQLRQT (domain or fragment) [BSAT1R_(125-141mut), FRET biosensor with mutant AT1R a.a. 125-141 (SMD2) between EYFPc and ECFP] | > 318
FKRYFLQLLKYIPPKAKSH (domain or fragment) [BSAT1R_(309-327), FRET biosensor with AT1R a.a. 309-327 (SMD4JM) between EYFPc and ECFP] | 0.51

The remaining binders from weak to strong by Kd, led by results:

Kd [µM] | Binder
4.52 | YTLIAKALKKAAEIQKNQPRNDDIAKII (domain or fragment) [BSAT1R_(215-242mut), FRET biosensor with mutant AT1R a.a. 215-242 (SMD3) between EYFPc and ECFP]
0.36 | YTLIWKALKKAYEIQKNKPRNDDIFKII (domain or fragment) [BSAT1R_(215-242), FRET biosensor with AT1R a.a. 215-242 (entire SMD3) between EYFPc and ECFP]
